Laboratory results as given in patent publication US20210206880A1.

Target: human β2 adrenergic receptor, wild type (human) (UniProt P07550)
Assay: cell-based or functional assay

MbNb80^cHopQ (designed binder)
apparent potency shift for epinephrine: IC50 for β2AR-wt alone divided by IC50^high in the presence of MbNb80^cHopQ ([3H]-DHA competition) (fold (IC50 ratio)): 2000
apparent potency shift for isoprotenerol: IC50 for β2AR-wt divided by IC50^high in the presence of MbNb80^cHopQ ([3H]-DHA competition) (fold (IC50 ratio)): 2000
